# From US20150119341A1
# [ ]: non-standard residue; d: D form. Nle = CCCC[C@H](N)C(=O)O
# Columns and labels:
# [1] = molecular target: recombinant human melanocortin-1 receptor (hMCR-1a) in membrane homogenates of HEK-293 cells (human) (UniProt Q01726); assay: competitive inhibition of [I125]-NDP-alpha-MSH, hMCR-1 HEK-293 membranes
# [2] = molecular target: recombinant human melanocortin-4 receptor (hMCR-4) in membrane homogenates of HEK-293 cells (human) (UniProt P32245); assay: competitive inhibition of [I125]-NDP-alpha-MSH, hMCR-4 HEK-293 membranes
# Sequence of recombinant human melanocortin-4 receptor (hMCR-4) in membrane homogenates of HEK-293 cells (human) (P32245 whole entry): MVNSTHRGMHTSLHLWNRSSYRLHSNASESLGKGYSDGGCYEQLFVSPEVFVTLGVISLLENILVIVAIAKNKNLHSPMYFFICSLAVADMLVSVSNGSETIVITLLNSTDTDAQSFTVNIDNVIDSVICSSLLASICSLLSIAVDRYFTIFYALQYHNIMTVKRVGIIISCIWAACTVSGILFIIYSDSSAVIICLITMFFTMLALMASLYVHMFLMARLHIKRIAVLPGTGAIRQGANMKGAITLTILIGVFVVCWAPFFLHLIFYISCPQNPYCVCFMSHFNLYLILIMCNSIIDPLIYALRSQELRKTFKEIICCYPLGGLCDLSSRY
# Sequence of recombinant human melanocortin-1 receptor (hMCR-1a) in membrane homogenates of HEK-293 cells (human) (Q01726 whole entry): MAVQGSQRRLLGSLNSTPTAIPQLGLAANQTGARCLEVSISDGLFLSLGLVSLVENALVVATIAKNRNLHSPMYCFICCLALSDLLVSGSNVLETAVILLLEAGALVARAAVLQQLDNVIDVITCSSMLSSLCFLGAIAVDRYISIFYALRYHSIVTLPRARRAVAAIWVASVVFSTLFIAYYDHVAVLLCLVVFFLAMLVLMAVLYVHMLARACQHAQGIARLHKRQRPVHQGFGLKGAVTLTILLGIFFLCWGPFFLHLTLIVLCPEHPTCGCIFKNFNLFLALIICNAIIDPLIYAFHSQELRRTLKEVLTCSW
substance,measurement,setting,value
Ac-[Nle]AH[dF]R[dP][dW]-NH2,Ki,[1],0.02 µM
same,Ki,[2],10 µM
Ac-[Nle][dF]RAW-NH2,Ki,[1],1.29 µM
same,Ki,[2],7.12 µM
